Substitutions are numbered along the chain they refer to. Where two headings read alike, the source gives them in different places.

The target in assay [1] is T1, human PDGF-BB (human).
T1 construct: The ELISA text names human PDGF-BB of Cell Signaling, Cat. No 8921BF
T1 chain: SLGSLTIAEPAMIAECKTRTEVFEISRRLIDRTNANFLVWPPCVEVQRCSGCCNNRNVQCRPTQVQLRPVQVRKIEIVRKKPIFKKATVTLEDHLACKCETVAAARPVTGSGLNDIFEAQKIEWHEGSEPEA
Kind of assay: SPR, Fab fragment; assay format for PDGF not described.

For a further assay, the target named is T2, cynomolgus PDGF (cynomolgus).
T2 construct: Printed only as cynomolgus PDGF
Described as above.

Another assay addresses T3, rabbit PDGF (rabbit).
T3 construct: Printed only as rabbit PDGF
Described as above.

Assay [2] concerns the target T1, human PDGF-BB. Described as above.
For the next assay, the target named is T4, minipig PDGF (minipig).
T4 construct: Printed only as minipig PDGF; also called Minpig PDGF
T4 sequence (P20034 whole entry, looked up): SLGSPAVAEPAVIAE
The description is as above.

The target in assay [3] is T5, human VEGF121-His (human, UniProt P15692 207-395).
T5 construct: Captured by an anti-His antibody on the chip; not shown: His tag
T5 sequence: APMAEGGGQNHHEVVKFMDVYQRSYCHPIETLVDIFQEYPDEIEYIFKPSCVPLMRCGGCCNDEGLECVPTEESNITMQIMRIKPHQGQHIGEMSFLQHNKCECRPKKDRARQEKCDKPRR
Kind of assay: SPR, VEGF121-His captured via anti-His antibody on C1 chip, Fab as analyte, single cycle kinetics. As to the method: (§1) An anti-His capturing antibody (GE Healthcare 28995056) was immobilized to a Series S Sensor Chip C1 (GE Healthcare 29104990) using standard amine coupling chemistry resulting in a surface densitiy of approximately 500 resonance units (RU). As running and dilution buffer, HBS-P+ (10 mM HEPES, 150 mM NaCl pH 7.4, 0.05% Surfactant P20) was used. […] The surface was regenerated by injecting 10 mM Glycine pH 1.5 for 60s. […] Curve fitting was performed using the 1:1 Langmuir binding model within the Biacore evaluation software. To provide more robust fitting, the Multiple Rmax option was chosen for global fitting using both ligand densities.
Background: SPR reads the build-up and loss of mass on a sensor chip optically.

For assay [4], the target named is T1, human PDGF-BB. Kind of assay: SPR, Fab fragment; assay format for PDGF not described.
Assay [5] concerns the target T5, human VEGF121-His. Kind of assay: SPR, VEGF121-His captured via anti-His antibody on C1 chip, Fab as analyte, single cycle kinetics. As to the method:
as §1
This is another data set of the same source.

B1: bispecific anti-VEGF/anti-PDGF-B Fab fragment RO7113083 (Fab, V domains shown)
VH: DLQLVESGGGLVKPGGSLRLSCAADGWWFGYTDMSWVRQAPGKGLEWVGSISYKGGSTYYNTKFIGRFTISRDDDTNTLYLQMNSLRAEDTAVYYCARDDGYFDTWGQGTLVTVSS
VL: AIYMHQEPSSLSASVGDRVTITCHGSYWLSNYLAWYQQKPGKAPKLLIYDGKEREHGVPSRFSGSGSHEDYTLTISSLQPEDFATYYCQQYRYHPYTFGHGTKVEIKR
notes: also called R07113083
For B1, the Kd in the assay with human PDGF-BB [1] was found to be 1.3 nM; with cynomolgus PDGF, 0.7 nM; with rabbit PDGF it was 0.6 nM; in the assay with human PDGF-BB [2], 1 nM; with minipig PDGF, 0.3 nM. The t½ stood at 25 min with human PDGF-BB [1]; 53 min with cynomolgus PDGF; 59 min with rabbit PDGF; 90 min in the assay with human PDGF-BB [2]; 59 min in the assay with minipig PDGF.

B2: bispecific anti-VEGF/anti-PDGF-B Fab fragment 28.02 (Fab, V domains shown)
VH: B1 VH with S57H, T58K, Y60L
VL: B1 VL with Y3H, H5Y
Regarding B2, in the assay with human PDGF-BB [1], binding was put at a Kd of 1.3 nM, the koff amounted to 0.000485 s⁻¹, the kon was 368000 M⁻¹ s⁻¹ and the t½ stood at 24 min. In the assay with human VEGF121-His [3], this molecule had a Kd of 0.007 nM, a koff of 1.15e-05 s⁻¹, a kon of 1.56e+06 M⁻¹ s⁻¹ and a t½ of 1010 min. Besides, in the assay with rabbit PDGF, the affinity, expressed as Kd, was 0.7 nM; the koff was found to be 0.000218 s⁻¹; the kon is 325000 M⁻¹ s⁻¹; the t½ came out at 53 min. In the assay with minipig PDGF, this molecule registered a Kd of 0.4 nM, a koff of 0.000215 s⁻¹, a kon of 605000 M⁻¹ s⁻¹ and a t½ of 54 min.

B3: bispecific anti-VEGF/anti-PDGF-B Fab fragment 28.01 (Fab, V domains shown)
VH: B1 VH
VL: B1 VL with Y3H, H5Y
For B3, the Kd amounted to 1.3 nM with human PDGF-BB [1], 0.6 nM in the assay with cynomolgus PDGF, 0.6 nM in the assay with rabbit PDGF and 0.3 nM with minipig PDGF. Moreover, the t½ came out at 26 min in the assay with human PDGF-BB [1], 54 min with cynomolgus PDGF, 67 min with rabbit PDGF and 69 min with minipig PDGF.

B4: bispecific anti-VEGF/anti-PDGF-B Fab fragment 28.07 (Fab, V domains shown)
VH: B1 VH with S57H, T58K, Y60L
VL: B1 VL
Take B4: the Kd with human PDGF-BB [1] was determined as 1.4 nM; with human VEGF121-His [3], 0.012 nM; in the assay with cynomolgus PDGF, 0.6 nM; with rabbit PDGF, 0.7 nM; in the assay with minipig PDGF, 0.3 nM. Further, the koff with human PDGF-BB [1] is 0.000483 s⁻¹; with human VEGF121-His [3], 1.73e-05 s⁻¹; in the assay with cynomolgus PDGF, 0.000215 s⁻¹; in the assay with rabbit PDGF, 0.000223 s⁻¹; with minipig PDGF, 0.000225 s⁻¹. Besides, the kon stood at 357000 M⁻¹ s⁻¹ in the assay with human PDGF-BB [1]; 1.4e+06 M⁻¹ s⁻¹ with human VEGF121-His [3]; 336000 M⁻¹ s⁻¹ with cynomolgus PDGF; 337000 M⁻¹ s⁻¹ in the assay with rabbit PDGF; 646000 M⁻¹ s⁻¹ with minipig PDGF. Moreover, the t½ with human PDGF-BB [1] turned out to be 24 min; with human VEGF121-His [3], 668 min; with cynomolgus PDGF it was 54 min; in the assay with rabbit PDGF it was 52 min; with minipig PDGF, 51 min.

B5: bispecific anti-VEGF/anti-PDGF-B Fab fragment P1AA9124 (Fab, V domains shown)
VH: B1 VH
VL: B1 VL with Y3Q, H5T, E7S, H100Q, V104L
Consider B5, for which the t½ was 24 min with human PDGF-BB [1]; 52 min in the assay with cynomolgus PDGF; 48 min with rabbit PDGF; 44 min with human PDGF-BB [2]; 48 min with minipig PDGF. For the same molecule, the Kd was 0.6 nM with cynomolgus PDGF, 0.7 nM with rabbit PDGF, 1 nM with human PDGF-BB [2] and 0.4 nM with minipig PDGF.

B6: bispecific anti-VEGF/anti-PDGF-B Fab fragment P1AE2845 (Fab, V domains shown)
VH: EEQLVESGGGLVQPGGSLRLSCAASGWWFEYTDMSWVRQAPGQGLEWVGSISPSGGSTYYNTNFIGRFTISRDDSKNTLYLQMNSLRDEDTAVYYCARDEGYFDEWGQGTLVTVSS
VL: AIQMTQSPSSLSASVGDRVTITCQASYWLHKYLAWYQQKPGQAPKLLIYDASELEYGVPDRFSGSGSGTDFTLTISSLEPEDFAVYYCQNYRYHPYTFGQGTKLEIKR
notes: DutaFab: one VH/VL pair carries both paratopes; Expressed in E. coli TG1
Take B6: the Kd stood at 0.13 nM with human VEGF121-His [3], 95 nM with human PDGF-BB [4], 95 nM with human PDGF-BB [2] and 0.13 nM in the assay with human VEGF121-His [5]. In addition, the koff was 6.54e-05 s⁻¹ with human VEGF121-His [3], 0.0779 s⁻¹ with human PDGF-BB [4], 0.0779 s⁻¹ with human PDGF-BB [2] and 6.54e-05 s⁻¹ in the assay with human VEGF121-His [5]. The kon with human VEGF121-His [3] was 503000 M⁻¹ s⁻¹; in the assay with human PDGF-BB [4], 824000 M⁻¹ s⁻¹; with human PDGF-BB [2], 824000 M⁻¹ s⁻¹; in the assay with human VEGF121-His [5], 503000 M⁻¹ s⁻¹. Also, the t½ with human VEGF121-His [3] was 177 min; with human PDGF-BB [4], 0.1 min; with human PDGF-BB [2], 0.1 min; with human VEGF121-His [5], 177 min.

By Kd is commonly meant a measure of binding affinity in units of concentration. Low readings indicate higher affinity, high ones lower affinity. What is called t½ is the time in which the quantity being followed falls by half. A low value points to rapid decline. What is called koff is the rate constant with which the complex falls apart. In general, kon refers to the second-order rate constant of association.

These data come from patent publication US20230105324A1 (Hoffmann-La Roche, published 2023).
